Molecular target: C-terminal extension of Bacillus cereus hemolysin II (HlyIICTD) (Bacillus cereus)
Assay: not stated; HlyIICTD in the presence of 4M urea

Which stoichiometry N does the source give for “C-terminal extension of Bacillus cereus hemolysin II (HlyIICTD) (domain or fragment)” here?
Its stoichiometry N is 3.
